# Source: patent publication US10421973B2, “Chemically inducible cucumber mosaic virus protein expression system” (THE REGENTS OF THE UNIVERSITY OF CALIFORNIA, priority 2006, dated 2019)
# “Also recorded” adds a separate entry of the source. Like-named read-outs stand apart in the source and are kept apart here. Where a SMILES comes first, the peptide text is derived from it. Bridges are numbered along the chain shown (N, C = ends). [ ]: non-standard residue; d: D form. The star is where a group is joined. Ileψ(thiazoline)Cys = CC[C@H](C)[C@H](N)C1=N[C@H](C(=O)*)CS1; dOrn = NCCC[C@@H](N)C(=O)O
# Assays:
# [1] = tested on: proteases in the cell cultured medium; assay: Effect of protease inhibitors and additives on human AAT degradation in cell-free CMViva conditioned medium; format: biochemical, Nicotiana benthamiana; conditions: for effect of medium additive on stabilizing functional human AAT: cell-free conditioned medium, data not shown
# Protocol: (§1) For the investigation of human AAT stability in plant cell cultures, human AAT was added to the cell-free conditioned medium to a final concentration of 2 mg/L and distributed into 6-well-plates. The cell-free conditioned medium was prepared by centrifuging and filtering (through a 0.22 μm filter) the plant cells from 7 day old CMViva cell cultures (pH 5.1). Various protease inhibitors including 2-mercaptoethylamine-HCl (aminopeptidase inhibitor), AEBSF (serine and cysteine proteases inhibitor), benzamidine-HCl (serine protease inhibitor), and EDTA (a metal ion chelator and metalloproteinase inhibitor) were added to the conditioned medium to a final concentration of 10 mM to assess their ability to retard the degradation of human AAT. In another treatment, the conditioned medium was also heated (in boiling water for 30 minutes) or the medium pH was adjusted (from original pH 5.1 to 6.4˜6.6) prior to the addition of human AAT to investigate the human AAT stability. The 6-well-plates containing human AAT in various conditioned medium (4 mL/well) were incubated on an orbital shaker at 140 rpm and 25[…] under ambient light. Samples were taken daily and stored at −80° for further ELISA, western blotting and band shift analysis.
# [2] = tested on: transgenic plant cell cultures; assay: Effect of stabilizing agents and protease inhibitors on rAAT production in transgenic plant cell cultures; format: cell-based, Nicotiana benthamiana; conditions: transgenic plant cell cultures; data not shown
# Protocol: The effect of stabilizing agents (bacitracin, PVP, BSA, Pluronic F-68, and mannitol) and protease inhibitors (2-mercaptoethylamine-HCl, AEBSF, benzamidine-HCl and EDTA) on the rAAT production in transgenic plant cell cultures was also evaluated.
# [3] = Protocol: as §1
# [4] = 5 day incubation, fresh sterile KCMS medium, pH 5.8
compound,measurement,setting,value
CC[C@H](C)[C@H](N)C1=N[C@H](C(=O)N[C@@H](CC(C)C)C(=O)N[C@H](CCC(=O)O)C(=O)N[C@H](C(=O)N[C@H]2CCCCNC(=O)[C@H](CC(N)=O)NC(=O)[C@@H](CC(=O)O)NC(=O)[C@H](Cc3cnc[nH]3)NC(=O)[C@@H](Cc3ccccc3)NC(=O)[C@H]([C@@H](C)CC)NC(=O)[C@@H](CCCN)NC2=O)[C@@H](C)CC)CS1 [bacitracin] ({Ileψ(thiazoline)Cys}-L[dE]IK[dOrn]I[dF]H[dD]N; lactam 4-C),effect of medium additive on stabilizing functional human AAT,[1],did not show significant effect
same,effect on total and functional rAAT production,[2],no significant improvement
NCCc1ccc(S(=O)(=O)F)cc1 [AEBSF],effect of protease inhibitor on human AAT degradation,[1]; 10 mM in 7 day old cell-free CMViva conditioned medium,highest ability to stabilize functional human AAT levels; also recorded: slightly inhibit human AAT degradation
same,effect on total and functional rAAT production,[2],no significant improvement
human AAT: commercially available human AAT (Calbiochem) used as standard and spiked into media,decline of total human AAT,"[3]; 5 day incubation, 7 day old cell-free CMViva culture medium, pH about 5.0",60%
same,decline of functional human AAT,[3]; [4],~50%
same,decline of total human AAT,[3]; [4],about 25%
same,decline of total human AAT,"[3]; 5 day period, CMViva culture medium adjusted to pH 6.4",about 25%
same,functionality of human AAT,[3]; 11 day-old cell-free CMViva medium adjusted to pH 4-5,accelerates the loss of functionality
same,functionality of human AAT,[3]; 11 day-old cell-free CMViva medium adjusted to pH 7-8,maintains the functionality
same,functional human AAT as % of the initial concentration,"[3]; after 5 days, heated CMViva culture medium",70%
same,functional human AAT level,"[3]; within 2 days, 7 day old cell-free CMViva culture medium, pH about 5.0",negligible
OC[C@@H](O)[C@@H](O)[C@H](O)[C@H](O)CO [mannitol],effect of medium additive on stabilizing functional human AAT,[1],did not show significant effect
same,effect on total and functional rAAT production,[2],no significant improvement
